Assay results taken from patent US20100297149A1 (ATYR PHARMA, published 2010).

Target: T1, human CCR1-EGFP expressed on HEK293T cells (human, UniProt P32246 1-355)
T1 construct: whole, on cells; Transiently transfected HEK293T cells; the fusion localized to the cell membrane; also called CCR1-expressing cells; not shown: EGFP from the pEGFP-N1 vector
T1 sequence (looked up): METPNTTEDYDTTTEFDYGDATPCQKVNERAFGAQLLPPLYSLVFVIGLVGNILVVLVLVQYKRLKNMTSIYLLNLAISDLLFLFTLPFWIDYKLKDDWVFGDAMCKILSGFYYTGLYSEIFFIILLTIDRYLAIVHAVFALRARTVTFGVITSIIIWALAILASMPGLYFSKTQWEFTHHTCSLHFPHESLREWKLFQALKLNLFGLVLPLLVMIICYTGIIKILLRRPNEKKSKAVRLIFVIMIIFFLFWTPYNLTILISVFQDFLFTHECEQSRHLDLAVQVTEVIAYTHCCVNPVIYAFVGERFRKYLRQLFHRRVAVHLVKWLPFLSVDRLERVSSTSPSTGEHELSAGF
Experiment: flow cytometry (FACS) on CCR1-EGFP-transfected HEK293T cells, detection with FITC anti-tag antibody
Method: Human CCR5 was amplified and cloned into to pEGFP-N1 vector. Human CCR1 receptor, also a CC chemokine receptor, was included as a control. HEK293T cells were transfected with CCR5-EGFP or CCR1-EGFP plasmids and 1d after transfection, cells were washed with PBS and detached from culture dish by trypsin. 1×10″6 cells were put into FACS tube in 100 μl complete media and kept on ice (cells were kept cold for remainder of the assay). Cells were treated with recombinant HRS-SV11 protein for 45′. Then cells were washed once with 1 ml staining buffer (1×PBS+3% FBS) and spin down at 4° C., 400×g for 10′. After wash, cells were incubated with 0.3 μl primary anti-V5-FITC antibody (3 μg/ml) in 100 μl staining buffer for 30′ in dark (kept in dark for remainder of the assay). Cells were then washed twice with 1 ml staining buffer, 4° C., 400×g for 10′ and spun down. After the final wash, cell pellets were resuspended in 800 μl staining buffer and analyzed immediately by FACS.

binding result: no binding
B1: recombinant HRS-SV11 splice variant polypeptide of human histidyl-tRNA synthetase with C-terminal polyhistidine tag (6xHis) (ligand)
chain: MAERAALEELVKLQGERVRGLKQQKASAELIEEEVAKLLKLKAQLGPDESKQKFVLKTPKALEEKIRTTETQVLVASAQKKLLEERLKLVSELWDAGIKAELLYKKNPKLLNQLQYCEEAGIPLVAIIGEQELKDGVIKLRSVTSREEVDVRREDLVEEIKRRTGQPLCICHHHHHH
notes: Expressed in E. coli from pET20b (EcoRV/NotI, no stop codon) and purified on Ni-NTA; By gel filtration it switches between monomer and dimer; also called wild type HRS-SV11
